Data: patent US20230348616A1

Assays:
Assay in all cases: flow cytometry on peptide-pulsed T2 cells, scFv 100 nM
[1] = target: 1F
[2] = target: 4A
[3] = target: 7F
[4] = target: 5A
[5] = target: 2M
[6] = target: 3A
[7] = target: 6L

Binder	standardized gMFI [2]	standardized gMFI [3]	standardized gMFI [4]	further results
NYA-1143 (scFv) scFv: GEVQLVESGGGVVQPGRSLTPSCSASGFSIRSYDIHWVRLAPGKGLEWVATISYDGSQKYFADSVKGRFTIFRDESENMVYLQMSGLRVEDTAVYHCARGSSGHYEAFDIWGQGTMVTVSSGGGGSGGGGSGGGGSQSVLTQPPSVSAAPGQKVTISCSGSSSNIGNWYVSWYQQLPGTAPKLLIYDNNKRPSGIPDRFSGSKSGTSATLGITGLQTGDEADYYCGTWDSSLSAPWVFGGGTKVTVLGAAAGAGGDYKDDDDKGAAAHHHHHH	5.91	4.26		standardized gMFI [1]: 1.77
NYA-2023 (scFv) scFv: GEVQLVESGGGVVQPGRSLTPSCSASGFSIRSYDIHWVRQAPGKGLEWVATISYDGSQKYFADSVKGRFTIFRDESENMVYLQMSGLRVEDTAVYHCARGSSGHYEAFDIWGQGTMVTVSSGGGGSGGGGSGGGGSQSVLTQPPSVSAAPGQKVTISCSGSSSNIGNWYVSWYQQLPGTAPKLLIYDNNKRPSGIPDRFSGSKSGTSATLGITGLQTGDEADYYCGTWDSSLSAPWVFGGGTKVTVLGAAAGAGGDYKDDDDKGAAAHHHHHH			1.21	
NYA-2035 (scFv) scFv: GEVQLVESGGGVVQPGRSLTPSCSASGFSIRSYDIHWVRLAPGKGLEWVATISYDGSQKYFADSVKGRFTIFRDESENMVYLQMSGLRVEDTAVYHCARGSSGHYEAFDIWGQGTMVTVSSGGGGSGGGGSGGGGSQSVLTQPPSVSAAPGQKVTISCSGSSSNIGNWKVSWYQQLPGTAPKLLIYDNNKRPSGIPDRFSGSKSGTSATLGITGLQTGDEADYYCGTWDSSLSAPWVFGGGTKVTVLGAAAGAGGDYKDDDDKGAAAHHHHHH	2.16		2.27	
NYA-2143 (scFv) scFv: GEVQLVESGGGVVQPGRSLTPSCSASGFSIRSYDIHWVRLAPGKGLEWVATISYDGSQKYFADSVKGRFTIFRDESENMVYLQMSGLRVEDTAVYHCARGSSGHYEAFDIWGQGTMVTVSSGGGGSGGGGSGGGGSQSVLTQPPSVSAAPGQKVTISCSGSSSNIGNWYVSWYQRLPGTAPKLLIYDNNKRPSGIPDRFSGSKSGTSATLGITGLQTGDEADYYCGTWDSSLSAPWVFGGGTKVTVLGAAAGAGGDYKDDDDKGAAAHHHHHH		5.26	4.3	
NYA-1154 (scFv) scFv: GEVQLVESGGGVVQPGRSLTPSCSASGFSIRSYDMHWVRQAPGKGLEWVATISYDGSQKYFADSVKGRFTIFRDESENMVYLQMSGLRVEDTAVYHCARGSSNHYEAFDIWGQGTMVTVSSGGGGSGGGGSGGGGSQSVLTQPPSVSAAPGQKVTISCSGSSSNIGNNYVSWYQRLPGTAPKLLIYDNNKRPSGIPDRFSGSKSGTSATLGITGLQTGDEADYYCGAWDSSLSAPWVFGGGTKVTVLGAAAGAGGDYKDDDDKGAAAHHHHHH			1.12	standardized gMFI [1]: 3.98
NYA-1163 (scFv) scFv: GEVQLVESGGGVVQPGRSLTPSCSASGFSIRSYDIHWVRLAPGKGLEWVATISYDGSQKYFADSVKGRFTIFRDESENMVYLQMSGLRVEDTAVYHCARGSSGHYEAFDIWGQGTMVTVSSGGGGSGGGGSGGGGSQSVLTQPPSVSAAPGQKVTISCSGSSSNIGNNYVSWYQQLPGTAPKLLIYDNNKRPSGIPDRFSGSKSGTSATLGITGLQTGDEADYYCGTWDSSLSAPWVFGGGTKVTVLGAAAGAGGDYKDDDDKGAAAHHHHHH		1.11		standardized gMFI [5]: 1.85; standardized gMFI [6]: 1.7; standardized gMFI [7]: 1.74
NYA-2047 (scFv) scFv: GQVQLVESGGGVVQPGRSLRLSCAASGFSIRSYDMHWVRQAPGKGLEWVATISYDGSQKYYADSVKGRFTISRDNSKNTLYLQMSSLRAEDTAVYHCARGSSGHYEAFDIWGQGTLVTVSSGGGGSGGGGSGGGGSQSVLTQPPSVSAAPGQKVTISCSGSSSNIGNWYVSWYQQLPGTAPKLLIYDNNKRPSGIPDRFSGSKSGTSATLGITGLQTGDEADYYCGTWDSSLSAPWVFGGGTKVTVLGAAAGAGGDYKDDDDKGAAAHHHHHH		3.11	1.03	
NYA-2044 (scFv) scFv: GEVQLVESGGGLVQPGGSLRLSCAASGFSIRSYDIHWVRLAPGKGLEWVATISYDGSQKYYADSVKGRFTISRDESKNTLYLQMNSLRAEDTAVYHCARGSSGHYEAFDIWGQGTLVTVSSGGGGSGGGGSGGGGSQSVLTQPPSVSAAPGQKVTISCSGSSSNIGNWYVSWYQQLPGTAPKLLIYDNNKRPSGIPDRFSGSKSGTSATLGITGLQTGDEADYYCGTWDSSLSAPWVFGGGTKVTVLGAAAGAGGDYKDDDDKGAAAHHHHHH			2.2	
NYA-2048 (scFv) scFv: GQVQLVESGGGVVQPGRSLRLSCAASGFSIRSYDMHWVRQAPGKGLEWVATISYDGSQKYYADSVKGRFTISRDNSKNTLYLQMSSLRAEDTAVYHCARGSSGHYEAFDIWGQGTLVTVSSGGGGSGGGGSGGGGSQSVLTQPPSASGTPGQRVTISCSGSSSNIGNWYVSWYQQLPGTAPKLLIYDNNKRPSGVPDRFSGSKSGTSASLAISGLQSEDEADYYCGTWDSSLSAPWVFGGGTKLTVLGAAAGAGGDYKDDDDKGAAAHHHHHH		1.46		
NYA-2045 (scFv) scFv: GEVQLVESGGGLVQPGGSLRLSCAASGFSIRSYDIHWVRLAPGKGLEWVATISYDGSQKYYADSVKGRFTISRDESKNTLYLQMNSLRAEDTAVYHCARGSSGHYEAFDIWGQGTLVTVSSGGGGSGGGGSGGGGSQSVLTQPPSASGTPGQRVTISCSGSSSNIGNWYVSWYQQLPGTAPKLLIYDNNKRPSGVPDRFSGSKSGTSASLAISGLQSEDEADYYCGTWDSSLSAPWVFGGGTKLTVLGAAAGAGGDYKDDDDKGAAAHHHHHH	1.17		0.94	
